The supplement of paper PMC10567573
± gives the standard deviation.

Experiment: protein stability index of a GFP-peptide fusion (GPS, HEK-293T) (PSI 1-6); higher = more stable
[1] = treatment: DMSO, c terminus: a fixed tail appended
[2] = treatment: MLN4924 1 uM, 8 h, c terminus: a fixed tail appended
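Note: 24-mer peptide tiles fused after GFP, lentivirally expressed, FACS-sorted into six equal bins by GFP/DsRed ratio, decoded by Illumina sequencing, PSI is the read-weighted mean bin number.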

Sequence: VESVFFGGGTPSLASPHTVAAVLE [RSAD1]
- protein stability index [1]: 2.97 ± 0.18
- protein stability index [2]: 3.02 ± 0.47

Sequence: DRFSGETSAAALSPMSAATLGGLN [SMTNL2]
- protein stability index [1]: 4.46 ± 0.14
- protein stability index [2]: 4.21 ± 0.24

Sequence: SPMSAATLGGLNPSPSEVITPWTP [SMTNL2]
- protein stability index [1]: 4.44 ± 0.18
- protein stability index [2]: 4.46 ± 0.28

Sequence: SVKLRGSSLFMDTEKSGKREFDVR [WEE1]
- protein stability index [1]: 3.86 ± 0.36
- protein stability index [2]: 3.94 ± 0.095

Sequence: SALASDRFNLILADTNSDRLFTVN [DCAF4]
- protein stability index [1]: 2.61 ± 0.18
- protein stability index [2]: 2.69 ± 0.32

Sequence: YAMKYMNKQKCVERNEVRNVFKEL [STK32A]
- protein stability index [1]: 2.07 ± 0.41
- protein stability index [2]: 2.24 ± 0.62

Sequence: LARKNREELDKYWSQQIEESTTVV [KRT18]
- protein stability index [1]: 4.24 ± 0.13
- protein stability index [2]: 4.12 ± 0.23

Sequence: EFLWGPRAHAEIRKMSLLKFLAKV [MAGEA10]
- protein stability index [1]: 2.38 ± 0.3
- protein stability index [2]: 2.66 ± 0.17

Sequence: GAVLALVAIFIMSLNKRHSSGDGN [MFSD9]
- protein stability index [1]: 3 ± 0.21
- protein stability index [2]: 3.43 ± 0.59

Sequence: EPPTEAASREENQAGPEATTSDPQ [PALM]
- protein stability index [1]: 5.61 ± 0.26
- protein stability index [2]: 5.49 ± 0.3

Sequence: LQRPSYKFFFKSMDDDFGVVKEEI [DVL3]
- protein stability index [1]: 2.76 ± 0.29
- protein stability index [2]: 2.85 ± 0.35

Sequence: QVHDDDLLSSSEEECKDRERPMYG [EMD]
- protein stability index [1]: 5.49 ± 0.22
- protein stability index [2]: 5.41 ± 0.13

Sequence: KQPPVTQSKTASDKSPSTVRDQGP [FBF1]
- protein stability index [1]: 5.29 ± 0.17
- protein stability index [2]: 5.27 ± 0.091

Sequence: PAPTPTPPGRLGAPYSEAWGYFHL [ZBED3]
- protein stability index [1]: 2.37 ± 0.27
- protein stability index [2]: 2.23 ± 0.6

Sequence: SHLQAAAQTPPRPGPPSAPPPPPK [SCNN1D]
- protein stability index [1]: 5.09 ± 0.26
- protein stability index [2]: 5.22 ± 0.14

Sequence: MSTNTVGLGLPMSRSQNTDMVQKS [CLINT1]
- protein stability index [1]: 4.59 ± 0.13
- protein stability index [2]: 4.7 ± 0.28

Sequence: LLPEKAFSDIPSPYLRGTIKMMQA [GFOD1]
- protein stability index [1]: 2.45 ± 0.23
- protein stability index [2]: 2.81 ± 0.44

Sequence: CHGMSSQLVRYSADGLLQLGPLGS [GALNT9]
- protein stability index [1]: 2.32 ± 0.3
- protein stability index [2]: 2.12 ± 0.21

Sequence: LQAPFLPPKAPPPVIKIPECPSMG [RHOBTB1]
- protein stability index [1]: 3.6 ± 0.23
- protein stability index [2]: 3.53 ± 0.57

Sequence: SSIIHEIDSILGNKPYSKKDYRS [KCNAB2]
- protein stability index (treatment: DMSO, c terminus: native): 3.02 ± 0.37
- protein stability index (treatment: MLN4924 1 uM, 8 h, c terminus: native): 3.53 ± 0.28

Sequence: DCTETIEGLELTEQTFSPAKSLSF [ADD1]
- protein stability index [1]: 4.16 ± 0.36
- protein stability index [2]: 4.21 ± 0.26

Sequence: QARYHDTPYKPPAGRAAAPELSYR [MYORG]
- protein stability index [1]: 3.69 ± 0.15
- protein stability index [2]: 3.85 ± 0.13

Sequence: DENERDLMHIAHIAELLEVFDLRM [RHOBTB2]
- protein stability index [1]: 2.63 ± 0.11
- protein stability index [2]: 2.7 ± 0.34

Sequence: AKTIDTSPPVDLFATASAAVPVST [SNAP91]
- protein stability index [1]: 4.37 ± 0.1
- protein stability index [2]: 4.32 ± 0.13

Sequence: CCCCYQSKSLMTSVPMNGTSIQWK [EDNRA]
- protein stability index [1]: 2.2 ± 0.26
- protein stability index [2]: 2.39 ± 0.31

Sequence: CPATWGPSVEQAADSLDFDETFLA [FOXJ1]
- protein stability index [1]: 4.56 ± 0.15
- protein stability index [2]: 4.61 ± 0.064

Sequence: LGACVRTAVAQGGWRSLWLGWGPT [SLC25A39]
- protein stability index [1]: 2.07 ± 0.63
- protein stability index [2]: 2.04 ± 0.16

Sequence: GCLAEAVSVIQSIPIFNETGRFSF [HACD3]
- protein stability index [1]: 2.91 ± 0.66
- protein stability index [2]: 2.6 ± 0.77

Sequence: AWMLCKLLDKAGVPPGVVNIVFGT [ALDH8A1]
- protein stability index [1]: 2.642 ± 0.019
- protein stability index [2]: 2.77 ± 0.51

Sequence: QESKNQVHRRGEYNVYSTFQSHEP [PPP2R2B]
- protein stability index [1]: 3.72 ± 0.38
- protein stability index [2]: 4.2 ± 0.22

Sequence: PLDFEAYSAAALQEAMKRLRGAKA [FCHO1]
- protein stability index [1]: 3.46 ± 0.25
- protein stability index [2]: 3.62 ± 0.29

Sequence: EKRLQEIEELEREAERKIIEENIT [SRPK2]
- protein stability index [1]: 5.03 ± 0.33
- protein stability index [2]: 5.39 ± 0.26

Sequence: PTVGIGGDRLQFNQLSQAELDELA [EFHC1]
- protein stability index [1]: 5.13 ± 0.23
- protein stability index [2]: 5.27 ± 0.15

Sequence: MEEEDPMPRQISRQSSVTESTLYP [TPRG1]
- protein stability index [1]: 5.1 ± 0.32
- protein stability index [2]: 5.26 ± 0.34

Sequence: AKGGFSGCSAVLSGGSSSSFRAGS [KRT71]
- protein stability index [1]: 3.17 ± 0.13
- protein stability index [2]: 3.17 ± 0.24

Sequence: QTQVKIWFQNKRSKFKKLMKQGGA [DLX1]
- protein stability index [1]: 2.36 ± 0.32
- protein stability index [2]: 2.1 ± 0.42

Sequence: FSVLEGEKNNHRAKDLRAPPEQGK [SOAT1]
- protein stability index [1]: 5.08 ± 0.26
- protein stability index [2]: 4.92 ± 0.18

Sequence: QATLPVGSPSRPLSRRQLCPLTPG [C2CD2L]
- protein stability index [1]: 3.61 ± 0.33
- protein stability index [2]: 3.74 ± 0.14

Sequence: QSLEGDTTKGTSEMSEKRGPTSSN [MLH1]
- protein stability index [1]: 5.54 ± 0.18
- protein stability index [2]: 5.43 ± 0.28

Sequence: TPVVTESTATSITLTWDSGNPEPV [PTPRD]
- protein stability index [1]: 4.21 ± 0.057
- protein stability index [2]: 4.16 ± 0.33

Sequence: GWGEVMLMADKVLRWERAWFPPAI [ARL6IP1]
- protein stability index [1]: 2.87 ± 0.48
- protein stability index [2]: 3.04 ± 0.78

Sequence: GQQDQVKLHDFFSYLMDHFIPSSH [PPEF2]
- protein stability index [1]: 2.81 ± 0.57
- protein stability index [2]: 2.89 ± 0.71

Sequence: KRWQKNNWPKNSNGVTQKASAPTY [NANOGP8]
- protein stability index [1]: 3.39 ± 0.17
- protein stability index [2]: 3.47 ± 0.21

Sequence: TGMPMMPQQPVMFAQPMMRPPFGA [SNAP91]
- protein stability index [1]: 2.97 ± 0.064
- protein stability index [2]: 2.67 ± 0.33

Sequence: MVVKTFMDMDQDSEEEKELYLNLA [PDS5B]
- protein stability index [1]: 2.79 ± 0.22
- protein stability index [2]: 3 ± 0.23

Sequence: RMVPALPPKRMLGADREFIEARRR [SNX8]
- protein stability index [1]: 3.96 ± 0.29
- protein stability index [2]: 4.17 ± 0.18

Sequence: ELRDLQVSVESQQVQQVEVEATVK [PRPH]
- protein stability index [1]: 4.88 ± 0.2
- protein stability index [2]: 4.96 ± 0.14

Sequence: RRSISSSRSENVLSRLSLMAMPNG [PSD2]
- protein stability index [1]: 3.54 ± 0.17
- protein stability index [2]: 3.56 ± 0.19

Sequence: VLKRQRKRRVALSPVTENSTSLSF [MYBL2]
- protein stability index [1]: 3.59 ± 0.22
- protein stability index [2]: 3.5 ± 0.14

Sequence: EMPKSSDFLIHPPERSDLTLYLIV [PCDHGC5]
- protein stability index [1]: 2.83 ± 0.47
- protein stability index [2]: 2.72 ± 0.3

Sequence: SSSSQIGNDSFQLQVTEDVNSSIK [CLCN6]
- protein stability index [1]: 5.14 ± 0.06
- protein stability index [2]: 4.87 ± 0.18

Sequence: FQCNQCGASFTQKGNLLRHIKLHS [IKZF1]
- protein stability index [1]: 4.56 ± 0.16
- protein stability index [2]: 4.4 ± 0.76

Sequence: DPDVGVNSLQSYQLSPNKHFSLRV [PCDHGA10]
- protein stability index [1]: 2.6 ± 0.25
- protein stability index [2]: 2.51 ± 0.24

Sequence: MEADSPAGPGAPEPLAEGAAAEFS [SLC35F2]
- protein stability index [1]: 5.5 ± 0.27
- protein stability index [2]: 5.48 ± 0.29

Sequence: SVRMRRAEKSVAPSNTGSRTTSVR [NEK8]
- protein stability index [1]: 4.62 ± 0.24
- protein stability index [2]: 4.6 ± 0.26

Sequence: VDRNTRPGPQDPEESASRQRFGEA [ELOA2]
- protein stability index [1]: 4.92 ± 0.25
- protein stability index [2]: 5.14 ± 0.14

Sequence: PAAKPDPDGGRADEWACELRLFGR [P3H4]
- protein stability index [1]: 3.47 ± 0.23
- protein stability index [2]: 3.36 ± 0.33

Sequence: DCLEGKKSKHAPRGTHLWEFIRDI [ELF3]
- protein stability index [1]: 2.66 ± 0.2
- protein stability index [2]: 2.66 ± 0.39

Sequence: VKQEIAEMRIPALNAYMKSLLSLP [NCF4]
- protein stability index [1]: 2.27 ± 0.34
- protein stability index [2]: 2.36 ± 0.28

Sequence: IYRFLKLHPRGKNNFSPLHLAVDK [FEM1C]
- protein stability index [1]: 2.31 ± 0.45
- protein stability index [2]: 2.25 ± 0.28

Sequence: QDKPYKCTDCGKSFNHNAHLTVHK [ZNF8]
- protein stability index [1]: 3.71 ± 0.27
- protein stability index [2]: 3.72 ± 0.41

Sequence: WTNQQKLYSRTGDIVEFVCKSGYH [CFHR2]
- protein stability index [1]: 2.46 ± 0.35
- protein stability index [2]: 2.5 ± 0.33

Sequence: IFDDNFIEERKQGLEQFINKVAGH [SNX3]
- protein stability index [1]: 3.03 ± 0.39
- protein stability index [2]: 3.32 ± 0.44

Sequence: KPLYVAFSFMYILVGLTVIGAFLN [KCNK9]
- protein stability index [1]: 2.79 ± 0.67
- protein stability index [2]: 2.97 ± 0.62

Sequence: EVTASQEARGLRLSDLEDLEEEEE [IRX6]
- protein stability index [1]: 5.73 ± 0.34
- protein stability index [2]: 5.64 ± 0.14
